# Experimental data reported in patent US20160046707A1 (EISAI R AND D MANAGEMENT, published 2016).
# Numbering of substitutions follows the chain as printed.
# T1: cynomolgus CCL20-secreted alkaline phosphatase (SEAP) fusion (cynomolgus monkey)
# T1 construct: also called cCCL20; cynomolgus CCL20-SEAP; not shown: the SEAP reporter (cDNA from Clontech pSEAP-Enhancer) and its junction to CCL20
# T1 chain: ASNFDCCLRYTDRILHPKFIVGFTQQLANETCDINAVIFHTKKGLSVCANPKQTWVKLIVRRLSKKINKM
# T2: rhesus CCL20-secreted alkaline phosphatase (SEAP) fusion (rhesus monkey)
# T2 construct: also called rCCL20; rhesus CCL20-SEAP; not shown: the SEAP reporter (cDNA from Clontech pSEAP-Enhancer) and its junction to CCL20
# T2 chain: T1 chain with I38V
# T3: mouse CCL20-secreted alkaline phosphatase (SEAP) fusion (mouse, UniProt O89093 28-97)
# T3 construct: Expressed in HEK293E, used as culture supernatant; also called SEAP-tagged mouse CCL20; mCCL20; not shown: secreted alkaline phosphatase (SEAP), cDNA from pSEAP-Enhancer vector (Clontech)
# T3 sequence: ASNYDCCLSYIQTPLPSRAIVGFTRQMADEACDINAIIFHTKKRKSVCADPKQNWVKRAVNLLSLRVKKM
# T4: recombinant human CCL16 (human, UniProt O15467 24-120)
# T4 construct: also called HCC-4
# T4 sequence (looked up): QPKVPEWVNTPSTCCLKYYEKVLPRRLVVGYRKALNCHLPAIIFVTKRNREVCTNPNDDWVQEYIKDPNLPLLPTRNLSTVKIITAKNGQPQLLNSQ
# B1: humanized anti-human CCL20 antibody 36LK3/36HC2 (antibody, human IgG1, kappa, V domains shown)
# VH: QVQLVQSGAEVKKPGASVKVSCKASGYTFTNYWMHWVRQAPGQGLEWMGVIDPSDSYTTYAQKFQGRVTMTVDTSTSTVYMELSSLRSEDTAVYYCARGNYGVDYAMDYWGQGTLVTVSS
# VL: DIQMTQSPSSLSASVGDRVTITCGASENIYGALNWYQRKPGKAPKLLIYGATNLADGVPSRFSGSGSGRDYTLTISSLQPEDFATYYCQNVLITPYTFGQGTKLEIKR
# notes: expressed in HEK293 cells; also called HC2/LK3; HC2LK3
# B2: humanized anti-human CCL20 antibody 36LC3/36HC2 (antibody, human IgG1, kappa, V domains shown)
# VH: B1 VH
# VL: B1 VL with G24R, R38Q, D70Q, T72S, Q100G
# notes: expressed in HEK293 cells; also called HC2/LC3; HC2LC3
# B3: chimeric 36F7C10 antibody (36F7C10-hFc) (antibody, V domains shown)
# VH: QVQLQQPGAELVKPGASVKMSCKASGYTFTNYWMHWVKQRPGQGLEWIGVIDPSDSYTTYNQKFKGKATLTVDTSSSTAYMQLSSLTSEDSAVYYCTRGNYGVDYAMDYWGQGTSVTVSS
# VL: DIQMTQSPASLSASVGETVTITCGASENIYGALNWYQRKQGKSPQLLIYGATNLADGMSSRFSGSGSGRQYSLKISSLHPDDVATYYCQNVLITPYTFGGGTKLEIK
# notes: also called chimeric 36F710; Chimeric MAb
# B4: mouse anti-human CCL20 monoclonal antibody 36F7C10 (antibody, V domains shown)
# VH: B3 VH
# VL: B3 VL
# notes: Mouse hybridoma antibody; also called MouseMAb; parental mouse clone 36F7C10
# Molecular target: T1, cynomolgus CCL20-secreted alkaline …
# Test: SPR (Biacore), bivalent format, KD ratio against human CCL20 (Table 17)
# Experimental: (§1) We also used surface plasmon resonance (Biacore™) analysis to test whether HC2/LC3 and HC2/LK3 can bind to mouse, cynomolgus, or rhesus macaque CCL20 orthologs. Monoclonal mouse anti-human placental alkaline phosphatase was immobilized on all four flow cells of a CM5 chip at a flow rate of 25 μl/min. 25 μl of a 2 nM solution of human, rhesus, cynomolgus, or mouse CCL20-SEAP in HBS-EP buffer was injected over flow cell 2, 3, or 4. For antibody binding, 240 μl of 0-80 nM dilutions of HC2/LC3, HC2/LK3, or 2F5-5 MAb in HBS-EP buffer (or buffer alone) was injected over all four flow cells at a flow rate of 50 μl/min. Dissociation followed for 45 min. Flow cell 1 (anti-SEAP alone) was used as a reference for all flow cells. Regeneration of the flow cells was performed with 10 mM glycine at pH 2.25. Due to regeneration effects on the capturing capacity of the chips, antibody injections were performed sequentially from low to high concentration. Data fitting was performed using a 1:1 Langmuir model.
# (§2) In contrast, chimeric, HC2/LC3, and HC2/LK3 antibodies effectively bound to human, rhesus, and cynomolgus CCL20 (Table 17).
row,Binder,fold higher KD than for human CCL20 [fold]
1,B1,~3
2,B2,~3
3,B3,~3

# Molecular target: T2, rhesus CCL20-secreted alkaline …
# Test: as above
# Experimental: as §1, §2
row,Binder,fold higher KD than for human CCL20 [fold]
1,B1,~3
2,B2,~3
3,B3,~3

# Molecular target: T5, human CCL20 anchored via a His-tag (human, UniProt P78556 27-96)
# T5 construct: Construct not described; also called His-tag anchored CCL20; not shown: His-tag
# Test: ELISA on His-tag anchored human CCL20, antibody titrated (x axis 'Ab conc. (ug/ml)', falling from left to right), Abs 450
# T5 sequence (P78556 27-96 limits assumed): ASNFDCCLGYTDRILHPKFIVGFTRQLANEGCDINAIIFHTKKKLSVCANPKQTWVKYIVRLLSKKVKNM
row,Binder,EC50 (read off the curve) [ng/mL]
1,B1,~6
2,B2,~6
3,B4,~5
4,B3,~8

# Molecular target: T6, human CCL20-secreted alkaline phosphatase (SEAP) fusion (human, UniProt P78556 27-96)
# T6 construct: also called hCCL20; human CCL20-SEAP; not shown: secreted alkaline phosphatase (SEAP), cDNA from pSEAP-Enhancer vector (Clontech)
# Test: SPR (Biacore), CCL20-SEAP captured by anti-SEAP, antibody injected (bivalent format), 1:1 Langmuir
# Experimental: as §1, §2
# T6 sequence (P78556 27-96): as the sequence (P78556 27-96 limits assumed) above
Binder,Kd [pM],koff [s⁻¹],kon [M⁻¹ s⁻¹]
B1,11.8,3.39e-05,2.88e+06
B2,4.71,2.68e-05,5.69e+06
B3,7.16,2.08e-05,2.9e+06

# Molecular target: T2, rhesus CCL20-secreted alkaline …
# Test: as above
# Experimental: as §1, §2
Binder,Kd [pM],koff [s⁻¹],kon [M⁻¹ s⁻¹]
B1,31.2,8.21e-05,2.63e+06
B2,18.2,7.51e-05,4.13e+06
B3,6.05,1.78e-05,2.94e+06

# Molecular target: T3, mouse CCL20-secreted alkaline …
# Test: ELISA (fluorescent HRP substrate): CCL20-SEAP captured on anti-alkaline phosphatase in 5-fold dilutions from 20 nM (x axis, nM), antibody at 1 ug/ml
# Experimental: To test whether the chimeric and humanized antibodies can bind to mouse, cynomolgus, or rhesus macaque CCL20 orthologs, we used ELISA assays as illustrated in FIG. 15. Recombinant secreted alkaline phosphatase (SEAP)-chemokine fusion proteins were engineered as described in Example 2, expressed and purified for all of the CCL20 orthologs tested. Nunc MaxiSorb flat-bottom black plates were coated with 1 μg/ml mouse anti-placental alkaline phosphatase antibody (Pierce, cat# MA1-19354) in 50 mM sodium bicarbonate, pH 9.4, overnight at 4° C. Plates were then blocked using 1× phosphate buffered saline with Tween-20 (PBST) with 5% bovine serum albumin (BSA) for 2 hours at room temperature. 20 nM SEAP-CCL20 fusion proteins were serially diluted 5-fold in Opti-MEM medium (Invitrogen). Chimeric and humanized (HC2/LC3 and HC2/LK3) antibodies were diluted to 1 μg/ml in 1×PBST with 5% BSA, added to the plates, and incubated for 1 hr at room temperature. The plates were then washed with 1×PBST with 5% BSA three times. […] QuantaBlu fluorescent HRP substrate (Pierce cat#15169) was added for detection of bound antibody by measuring fluorescence in a Molecular Devices M5 (Excitation 325 nm/Emission 420 nm) plate reader.
# While the hamster anti-mouse CCL20 antibody 2F5-5 MAb bound mouse CCL20 with a 50% effective dose (EC₅₀) of 64 pM (data not shown), neither the chimeric nor humanized anti-human CCL20 antibodies bound detectably to mouse CCL20 or rat CCL20 under the conditions described above. By contrast, both the chimeric and humanized antibodies effectively bound to human, rhesus, and cynomolgus CCL20 (FIGS. 16A-C, 17A and B).
row,Binder,binding result
1,B1,no binding (tested: 20 nM)
2,B2,no binding (tested: 20 nM)
3,B3,no binding (tested: 20 nM)

# Molecular target: T4, recombinant human CCL16
# Test: SPR (Biacore): antibody captured on anti-human Fc, 100 nM chemokine injected; ratio = chemokine binding level over antibody capture level
# Experimental: We used Biacore™ analysis to test whether HC2/LK3 and HC2/LC3 cross-react with CCL16. Monoclonal mouse anti-human Fc was immobilized on all four flow cells of a CM5 chip at a flow rate of 25 μl/min with HBS-EP buffer containing 0.2 mg/mL BSA. Subsequently, 50 μl of a 1 μg/ml solution of chimeric, HC2/LC3, or HC2/LK3 antibody in HBS-EP buffer with 0.2 mg/ml BSA was injected over flow cells 2, 3, and 4, respectively. 150 μl of a 100 nM solution of CCL20 or CCL16 in HBS-EP buffer (or buffer alone) with 0.2 mg/ml BSA was then injected over all four flow cells at a flow rate of 40 μl/min. Dissociation followed for 20 min. Flow cell 1 (anti-human Fc antibody alone) was used as a reference for all flow cells.
# Under these conditions, human CCL20 bound to the chimeric (FIG. 13A), HC2/LC3 (FIG. 13B), and HC2/LK3 (FIG. 13B) antibodies captured on the chip with similar strength.
row,Binder,ReqCk/ReqAb ratio
1,B1,0.006
2,B2,0.005
3,B3,0.006
